Data reported in the supplement of paper PMC12042874.
± gives the uncertainty stated by the source.

Assay: amyloid nucleation score (Sup35N fusion, yeast selection) (log enrichment); library NNK2; higher = more nucleation; inactive = no reads after selection
Outline: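 DiMSum was used to calculate nucleation scores as log enrichment of output over input reads, centred on the mode score of non-aggregating sequences. Sequences with fewer than 100 input reads were not scored. Input and output came from Illumina sequencing of plasmid inserts in psi-negative yeast expressing peptides of 20 random codons fused to Sup35N, induced 24 hours with 100 μM copper sulfate and then grown 7 days at 30°C on medium lacking adenine and uracil.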

In order of rising amyloid nucleation score:
1. DYIFGYSTILFVMLCIHNFY  -1.35 ± 0.78
2. FYWAKPSHWAPGFINGQDVL  -1.19 ± 0.54
3. DWFGLCFMKRFKFGEYKACM  -1.04 ± 0.48
4. MSMATTWSIFDWVEREFPFY  -0.933 ± 0.55
5. LYKYLCAIIKNVDKVVPLRM  -0.904 ± 0.49
6. VLFCL  -0.806 ± 0.48
7. CTPLGFCSKNRLGLQEDGVK  -0.788 ± 0.76
8. YSIYELPTHYLKCLRSYKSK  -0.627 ± 1.1
9. FIGCKEHNILNSMKRVD  -0.594 ± 1.1
10. SKTLAGIWSDGVHAEFDIKG  -0.573 ± 0.79
11. SNGPW  -0.512 ± 0.76
12. WSRIGG  -0.498 ± 0.63
13. FKSVSRSVALLRYPCLPKFS  -0.47 ± 0.74
14. WFYLCMFGAYLWRVRFDIRK  -0.428 ± 0.34
15. RITWFVIFIHCCKGLIR  -0.369 ± 0.54
16. CIELFPFAMVNRIFATYSYH  -0.352 ± 0.25
17. RCRPLCI  -0.299 ± 1
18. TDSRFLWGSKRNHCVRWCML  -0.242 ± 1.1
19. SWWYSKELKSRSAILATMMK  -0.151 ± 0.28
20. ELLSRETIKDHWMTIIKYFL  -0.143 ± 0.74
21. CEHRSLTFWHNGLLD  -0.143 ± 0.65
22. LFGVYMLQVCVKNSKLSRSE  -0.133 ± 1
23. CSHPFDYVQTILRTVTLFLI  -0.114 ± 0.63
24. TGYHNLMGVLGMVAVKHELG  -0.09 ± 0.25
25. VTGNTSRLISRPGANPNCMG  -0.03 ± 0.56
26. ISIVPYYNLGIGGRVTGSEA  0.012 ± 0.3
27. NHWWIHYDDLLLAHDFLHLW  0.055 ± 0.42
28. TFRPFQVTSHVSLRDMMGIS  0.132 ± 0.3
29. MYIMLFRFVRIVDLLDCLGN  0.207 ± 0.43
30. IFVGVNCIQKISKRYGWYLC  0.214 ± 0.77
31. RPSSWVVRCE  0.223 ± 0.41
32. TSTIYGLTPRFGNMAHSAVV  0.227 ± 0.65
33. YTFKYLSRMYLHYSVKGMWL  0.325 ± 0.8
34. ESNKRTTCLFH  0.331 ± 0.32
35. RVDFFRFSVQSESWSVLH  0.334 ± 0.35
36. KISFVALAVDARYGWCLFHY  0.358 ± 0.24
37. MLWWLYLTDYSISGYNVGKM  0.433 ± 0.74
38. FSVRGRWAHLWMK  0.443 ± 0.42
39. EDELSPF  0.453 ± 0.18
40. PWAMDQVTLSMVLPFMWPRL  0.456 ± 0.39
41. MSFYPRWFSQGMLWCKHHHA  0.516 ± 0.81
42. NEPETLWFLLVVWEGINISP  0.561 ± 0.64
43. ALIRFCTSW  0.588 ± 0.16
44. FFGALNWGLKQE  0.646 ± 0.43
45. QTSLSTMMYLPCH  0.7 ± 0.49
46. PWHVYFDRNGWPYGSQRVQG  0.718 ± 0.57
47. KRLVGVTAMMCSFFLYLFLE  0.859 ± 0.35
48. RLSVA  1.24 ± 0.26
49. DVVCRMRATYCWALRVMGQR  1.58 ± 0.29
50. SKGSTGLRIVLFHFTCVVID  1.99 ± 0.17
51. TDDMCYSEMYIRCVRLFEIV  2.34 ± 0.11
52. IQINLLNSGYSFRLRASKFS  2.89 ± 0.075
53. KNFFSRRTW  2.98 ± 0.14
54. ELGYCYSFGHSQFFKQSKHG  3.03 ± 0.071
55. LFVHYFSVGYSHLLCRDCTS  3.23 ± 0.1
56. HLTESHFGWFGSDVSSQTFL  3.42 ± 0.084
57. RFSLSMDLLNPYST  4.15 ± 0.13
58. LIVGAIASLHHTLQVNGSPN  4.59 ± 0.11
59. TVNLVFSTRG  4.64 ± 0.059
60. NGGSGNQVMLEVTNLVFK  5.295 ± 0.044
61. RTIQMVTSQSLPCFC  6.196 ± 0.042
62. RVCMINSYLLVTRCVGDN  8.387 ± 0.028
63. GEQVWCVGCPYVRWNSLHAG  8.756 ± 0.037

For FRTQCHRAMDRASCRVLVRP, the amyloid nucleation score was “inactive”.
With LDLNFEWFW the amyloid nucleation score was “inactive”.
In the case of CLPFYCTFGSVVARAGVYH, the amyloid nucleation score is reported as “inactive”.
For CRNCLLGHLRLVTHHVRILY, the amyloid nucleation score was “inactive”.
In the case of WHGQQDLDYYHFT, the amyloid nucleation score is reported as “inactive”.
For GYLILFTCNPLVFLVNRSGR, the amyloid nucleation score was “inactive”.
